{"source": "patent US20080242590A1", "about": "“New Method 706” (ASTRAZENECA AB, priority 2007, published 2008)", "key": {"soluble Aβ40": {"system": "soluble Aβ40", "test": "Soluble Aβ40 in plasma after acute i.v. treatment (Example 23)", "type": "in vivo, APPSWE-transgenic mice", "experimental": "The objective with this study was to evaluate the time and dose-response effect of Fc-Nep in plasma of female APPSWE-tg mice after acute intraveneous treatment. The specific purpose is to find an effect on plasma Aβ40 and Aβ42. The γ-secretase inhibitor M-550426 is included as a reference compound.\n25-31 weeks old female APPSWE-transgenic mice (10 mice/group) received vehicle or the Fc-Nep at 1 or 5 mg/kg as a single intravenous injections. As a reference compound, 300 μmol/kg of the γ-secretase inhibitor M-550426 was used and these animals was treated in 3 hours (4 mice). […] Blood was sampled from vehicle- and compound-treated animals at 1.5 and 3 hours after dose. Blood was withdrawn from anaesthetized mice by heart puncture into pre-chilled microtainer tubes containing EDTA. Blood samples were immediately put on ice prior to centrifugation. Plasma was prepared by centrifugation for 10 minutes at approximately 3000×g at +4° C. within 20 minutes from sampling. After blood sampling, mice were terminated. Aβ40 and Aβ42 levels in plasma were analyzed by commercial ELISA kit obtained from Biosource and Innogenetics, respectively."}, "mouse Aβ40": {"system": "mouse Aβ40", "test": "Mouse Aβ40 in plasma, time and dose response 1.5 and 3 hours (Example 24)", "type": "in vivo, C57BL/6 mice", "experimental": "The objective with this study was to evaluate the time and dose-response effect of hFc-Nep in plasma of female C57BL/6 mice after an acute treatment. The specific purpose is to find an effect on plasma Aβ40 and to correlate effect to exposure level of hFc-Nep in plasma. The γ-secretase inhibitor M-550426 is included as a positive control.\n13 weeks old female C57BL/6 mice (10 mice/group) received vehicle or hFc-Nep at 1 or 5 mg/kg as a single intravenous injection. M-550426 was administrated per orally at 300 μmol/kg 3 hours before termination. A blank group was also included in the study.\nBlood was sampled from vehicle- and compound-treated animals at 1.5 and 3 hours after dose. Blood was withdrawn from anaesthetized mice by heart puncture into pre-chilled microtainer tubes containing EDTA. Blood samples were immediately put on ice prior to centrifugation. Plasma was prepared by centrifugation for 10 minutes at approximately 3000×g at +4° C. within 20 minutes from sampling. After blood sampling, mice were terminated. […] Mouse Aβ40 levels in plasma were analysed by commercial ELISA kit obtained from Biosource. The concentrations of Fc-Nep in plasma and in the formulations were assayed according to the procedures described in Example 27."}, "Aβ40": {"system": "Aβ40", "test": "Plasma Aβ40 time-response after single i.v. dose (Example 25)", "type": "in vivo, C57BL/6 mice", "conditions": "5 mg/kg single i.v., all time points (1.5, 6, 12, 24, 36, 72 and 168 hours)", "experimental": "The objective of this study was to evaluate the time-response relationship of the hFc-Nep in plasma of female C57BL/6 mice after a single dose. The specific purpose is to find how long the reducing effect of hFc-Nep stays in the plasma, and to correlate the effect to the level of exposure of test compound in plasma. The γ-secretase inhibitor M-550426 is included as a positive compound.\n20-21 weeks old female C57BL/6 mice (8 mice/group) received vehicle or hFc-Nep at 5 mg/kg as a single intravenous injection and Aβ40 was analysed at different time points after injection (between 1.5-168 hours, i.e., up to 1 week). The γ-secretase inhibitor M-550426 was given per orally and the animals were treated for 3 hours. A blank group was also included in the study. […] Blood collection, plasma processing and measurement of mouse Aβ40 levels in plasma were basically as described in Example 27."}, "Aβ 1-42 [1]": {"system": "Aβ 1-42", "test": "Degradation of Aβ 1-42 in human plasma pool (Example 28)", "type": "biochemical", "conditions": "room temperature, 1 hour", "experimental": "Blood from twelve individuals (6 females and 6 males) were collected into pre-chilled heparin-plasma tubes at the healthcare centre (AstraZeneca) at three different time points. Plasma was prepared by centrifugation at 2500×g for 20 min at 4° C. Plasma samples were collected and transferred to pre-chilled polypropylene tubes and immediately frozen and stored at −70° C. prior to use. Plasma was thawed and pooled from 12 individuals just before the experiment. Aβ 1-40 and 1-42 in plasma pool was degraded by human Fc-Nep or mouse Fc-Nep with corresponding vehicles (50 mM Tris-HCl, 150 mM NaCl pH 7.5). The following final concentrations of the Fc-Nep constructs were used, 100, 32, 10, 3.2, 1, 0.3, 0.1 and […] and the degradation occurred at room temperature for 1 hour while shaking on an orbital shaker. The enzymatic reaction was stopped by adding Phosphoramidone (10 μM final concentration). Concentration of amyloid β 1-40 in human plasma pool was measured using ELISA kit (Biosource; KHB3481) according to the manufacturers instructions.\nA final concentration of 4.7 mM EDTA was added to the tubes before the concentration of Aβ42 was analyzed using ELISA kit Innotest® β-Amyloid1-42 (Innogenetics, lot#177462, ref#80177) according to the manufacturers instructions."}, "Aβ 1-42 [2]": {"system": "Aβ 1-42", "test": "Degradation of Aβ 1-42 in APPswe-tg mouse plasma pool (Example 28)", "type": "biochemical", "conditions": "room temperature, 1 hour", "experimental": "Mouse plasma collected from 9 animals was stored at −70° C. Plasma was thawed and pooled just before the experiment. Aβ 1-40 and 1-42 in plasma pool was degraded by human Fc-Nep or mouse Fc-Nep with corresponding vehicles (50 mM Tris-HCl, 150 mM NaCl pH 7.5). The following final concentrations of the Fc-Nep constructs were used, 100, 32, 10, 3.2, 1, 0.3, 0.1 and […] and the degradation occurred at room temperature for 1 hour while shaking on an orbital shaker. The enzymatic reaction was stopped by adding Phosphoramidone (10 μM final concentration).\nAfter degradation, a final concentration of 4.7 mM EDTA was added to the tg-mouse plasma tubes and the plasma samples were diluted 3 times in sample diluent, before the concentration of Aβ42 was analyzed using ELISA kit Innotest® β-Amyloid1-42 (Innogenetics, lot#177462, ref#80177) according to the manufacturers instructions. The highest concentration (100 μg/ml) of human Fc-Nep and mouse Fc-Nep degraded human plasma amyloid β 1-40 by 71% and 77%, respectively and Aβ 1-42 by 34% and 53%, respectively, as compared to plasma without Fc-Nep treatment."}, "[3]": {"conditions": "highest concentration 100 μg/ml"}}}
{"molecule": "Fc-Neprilysin: extracellular domain of human Neprilysin fused to the human IgG2 Fc domain (including hinge), Fc at N-terminus; SEQ ID NO 11 (protein) ERKCCVECPPCPAPPVAGPSVFLFPPKPKDTLMISRTPEVTCVVVDVSHEDPEVQFNWYVDGVEVHNAKTKPREEQFNSTFRVVSVLTVVHQDWLNGKEYKCKVSNKGLPAPIEKTISKTKGQPREPQVYTLPPSREEMTKNQVSLTCLVKGFYPSDIAVEWESNGQPENNYKTTPPMLDSDGSFFLYSKLTVDKSRWQQGNVFSCSVMHEALHNHYTQKSLSLSPGKYDDGICKSSDCIKSAARLIQNMDATTEPCTDFFKYACGGWLKRNVIPETSSRYGNFDILRDELEVVLKDVLQEPKTEDIVAVQKAKALYRSCINESAIDSRGGEPLLKLLPDIYGWPVATENWEQKYGASWTAEKAIAQLNSKYGKKVLINLFVGTDDKNSVNHVIHIDQPRLGLPSRDYYECTGIYKEACTAYVDFMISVARLIRQEERLPIDENQLALEMNKVMELEKEIANATAKPEDRNDPMLLYNKMTLAQIQNNFSLEINGKPFSWLNFTNEIMSTVNISITNEEDVVVYAPEYLTKLKPILTKYSARDLQNLMSWRFIMDLVSSLSRTYKESRNAFRKALYGTTSETATWRRCANYVNGNMENAVGRLYVEAAFAGESKHVVEDLIAQIREVFIQTLDDLTWMDAETKKRAEEKALAIKERIGYPDDIVSNDNKLNNEYLELNYKEDEYFENIIQNLKFSQSKQLKKLREKVDKDEWISGAAVVNAFYSSGRNQIVFPAGILQPPFFSAQQSNSLNYGGIGMVIGHEITHGFDDNGRNFNKDGDLVDWWTQQSASNFKEQSQCMVYQYGNFSWDLAGGQHLNGINTLGENIADNGGLGQAYRAYQNYIKKNGEEKLLPGLDLNHKQLFFLNFAQVWCGTYRPEYAVNSIKTDVHSPGNFRIIGTLQNSAEFSEAFHCRKNSYMNPEKKCRVW", "values": [{"measurement": "Change in plasma Aβ40", "setting": "soluble Aβ40; 1 and 5 mg/kg i.v., 3 hours after dose", "value": "No significant changes"}, {"measurement": "Reduction of soluble Aβ40 in plasma compared to vehicle", "setting": "soluble Aβ40; 1 or 5 mg/kg i.v., 1.5 hours after dose, P<0.05", "value": "approximately 20%"}, {"measurement": "Reduction of mouse Aβ40 in plasma compared to vehicle", "setting": "mouse Aβ40; 1 mg/kg i.v., 1.5 hours, p=0.1638", "value": 17, "unit": "%"}, {"measurement": "Reduction of mouse Aβ40 in plasma compared to vehicle", "setting": "mouse Aβ40; 1 mg/kg i.v., 3 hours, p<0.005", "value": 36, "unit": "%"}, {"measurement": "Reduction of mouse Aβ40 in plasma compared to vehicle", "setting": "mouse Aβ40; 5 mg/kg i.v., 1.5 hours, p<0.0001", "value": 76, "unit": "%"}, {"measurement": "Reduction of mouse Aβ40 in plasma compared to vehicle", "setting": "mouse Aβ40; 5 mg/kg i.v., 3 hours, p<0.0001", "value": 72, "unit": "%"}, {"measurement": "Aβ40 reduction in plasma compared to vehicle", "setting": "Aβ40", "value": "67-80%"}, {"measurement": "Degradation of Aβ 1-42 compared to plasma without treatment", "setting": "Aβ 1-42 [1]; [3]", "value": 28, "unit": "%"}, {"measurement": "EC50", "setting": "Aβ 1-42 [1]", "value": 250, "unit": "nM"}, {"measurement": "Degradation of Aβ 1-42 compared to plasma without treatment", "setting": "Aβ 1-42 [2]; [3]", "value": 34, "unit": "%"}, {"measurement": "EC50", "setting": "Aβ 1-42 [2]", "value": 1300, "unit": "nM"}]}
